Kd and stoichiometry N data for 3 substances are collected here from article PMC8184781, “A histone H3K4me1-specific binding protein is required for siRNA accumulation and DNA methylation at a subset of loci targeted by RNA-directed DNA methylation” (Nature Communications, 2021).

What all share (test): ITC; Microcal PEAQ-ITC, 20 °C; protein about 0.8–0.12 mM (so in the source), peptide about 1.0–1.5 mM; 100 mM NaCl, 20 mM HEPES, 2 mM β-mercaptoethanol (pH 7.0 in the methods, [7.4] in the footnote of Supplementary Table 1)
For orientation: In ITC the heat of successive injections is recorded.

Assay [1] addresses RDM15 Tudor domain (residues 598-662) D645A (Arabidopsis thaliana).
For assay [2], the target named is RDM15 Tudor domain (residues 598-662) Q654A (Arabidopsis thaliana).
Assay [3] concerns the target RDM15 Tudor domain (residues 598-662), wild type (Arabidopsis thaliana).

For orientation: Kd means a measure of binding affinity in units of concentration. The term stoichiometry N denotes a count of units in the complex or per binding partner. On to H3(1-15) K4me1 peptide, for which the Kd in assay [1] turned out to be 62.7 µM; in assay [2], 60.8 µM. Also, the stoichiometry N in assay [1] came to 0.86; in assay [2], 1.08; in assay [3] it was 0.96.
For H3K4me2 peptide, in assay [3], the Kd stood at 30.9 µM and the stoichiometry N amounted to 1.03.
For H3K4me3 peptide the same measures were 66.2 µM and 0.9.
